One molecule from doi:10.1101/2021.04.09.439147 (bioRxiv, 2021) can be followed below.

This test deals with T1, SARS-CoV-2 S1 subunits-His tag (SARS-CoV-2, reference assumed, UniProt P0DTC2).
T1 construct: source: bought: Sino Biological
Description: ELISA. The note with it: both partners purified. On the technique in general: An ELISA detects its analyte on a solid surface through an enzyme-linked reagent.

B1: FLAG-tagged K-874A (VHH)
VHH: EVQLVESGGGQVETGGSLRLSCQASGSTFSDYVMAWFRQRPGKEREFVATISRNGGTTTYGSSVKGRFTISRDNAKSTVYLQMNSLKPEDTAVYYCYAVGGDGDSWGQGTQVTVSS
notes: also called CoVHH1-FLAG
Consider B1, for which the binding result was “binds”.
